{"source": "the nanobody polyreactivity screen of Harvey et al. (2022)", "data": [{"experiment": "yeast display, Sf9 membrane polyspecificity reagent, FACS + sequencing; frameworks hold sequencing errors", "outline": "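Polyreactivity labels are assigned by the sorting gate from which each nanobody was recovered. The gates were low and high (top ~1%), set on anti-HA fluorescence for expression and streptavidin fluorescence for reagent binding. Before sorting, galactose-induced (36–48 hours) yeast display cells were stained for 1 hour at 4 °C with 10% biotinylated, detergent-solubilized Sf9 membrane reagent.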", "values": [{"sequence": "QVQLVESGGGIVQAGGSLRLSCAASGRIFKWNAMGWYRQAPGKERELVAAISTSRGNTYYADSVKGRFTSSRDYAKNTVYLLMNSLKPEDTAGYYCAATYPISLRQVGYWGQATQVTVSS", "polyreactivity (PSR sort gate)": "high polyreactivity"}, {"sequence": "QVQLVESGGGLVQAGGSLRLSCAASGFIFVRYAMGWYRQAPGKERELVAAISWRGGSTYYADSVKGRFTISRDNAKNTVYLQMNSLKPEDTAVYYCAAVTWVHRYSRFHPFVAFDYWGQGTQVTVSS", "polyreactivity (PSR sort gate)": "high polyreactivity"}, {"sequence": "QVQLVESGGGLVQAGGSLRLSCSASGSILSAYDMGWYRQATGKERELVAAIDSSGGSTYYADSVKGRFTISRDNAKNTVYLQMNSLKPEDTAVYYCAATSLAGYYKFDYWGQGSQVTVSS", "polyreactivity (PSR sort gate)": "low polyreactivity"}, {"sequence": "QVQLVQSGGGLVQAGGSLRLSCAASGRTFGRYAMGWYRQAPGKERELVAAINRGGSTKYADSVQGRFTISRDNAKNTVYLQMNSLKPEDTAVYYCAKDRHPALLYDYWGQGTEVTVSS", "polyreactivity (PSR sort gate)": "low polyreactivity"}, {"sequence": "QVQLVESGGGLVQAGGSLRISCAASGRIFSGNAMGWYRQAPGKERELVAAISSGGSTYYADSVKGRFTISRYNAMNTVFLQMNILKPEDTAVYYCKKSRGRKWRGNYSVVKLLMGYWGQGSQVTVSS", "polyreactivity (PSR sort gate)": "low polyreactivity"}, {"sequence": "QVQLVESGGGLLQAGRSLRLSCAASGSIIWLYAMGWYRQAPGKERELVAAISWTGTSTNYADSVKGRFTISRDYAKNTVYLQMNSLKPEDTAVYYCAKRWYNQKLFGYEDEYDYWGQGTQVTVSS", "polyreactivity (PSR sort gate)": "low polyreactivity"}, {"sequence": "QVQIVESGGALVQAGGSLRLSCAASGSTHGNAMGWYRQAPGKERELVAAISLNTGSTYYADSVKGRFTISRDNAKNTVYLQMNSLKPEDTAVYYCAAGGTARDDSWGQGTQVTVSS", "polyreactivity (PSR sort gate)": "low polyreactivity"}, {"sequence": "QVQLVESGGGLVQAGGSLRLSCAASGSTFLRYAMGWYREAPGTERELVAAISVSGGSTYYADSVKGRFTISRDNAKNTVYLQMNSLKPEYTAVYYCIAVTKFHRRYNYWGQGTQVTVSS", "polyreactivity (PSR sort gate)": "high polyreactivity"}, {"sequence": "QVQLVESGGGLVQAGGSLRLSCAASGRIFYHNTMGWYRQAPGKEREFVAAISKRGGNTYYADSVKGRFTISRDNAKNTVYLQMNSLKPEDTAVYYCNRRNAWSRGEYWGQGTQVTVSS", "polyreactivity (PSR sort gate)": "high polyreactivity"}, {"sequence": "QVQLVESGGGLVQAGGSLRLSCASSGIILYAYAKGWYRQAPGKERELVAAISRSGGRTYYADSVKGRFTISRDKAKNTVYLQMNSLKPEDTAVYYCATVTRYPDGHRFDYWGQGTQVTVSS", "polyreactivity (PSR sort gate)": "high polyreactivity"}, {"sequence": "QVQLVESGGGLVQAGGSLRLSCAASGRIFYPYAMGWYRQAPGTERELVATITRTGSTYYADSVKGRFTISRDNAKNTVYLQMNSLKPEDTAVYDCAVQRSYVGPRQYNYWGQGTQVTVSS", "polyreactivity (PSR sort gate)": "high polyreactivity"}, {"sequence": "QVQLVESGGGLVQAGGSLRLSCAASGSIFVEYAMGWYRQAPGKERELVASITWSSTSTYYADSVKGRFTISRDNAKNTVYLQMNSLKPEDTAVYYCNTEDYQYAPYEYDYWGQGTQVTVSS", "polyreactivity (PSR sort gate)": "low polyreactivity"}, {"sequence": "QVHLVESGGGLVQAGGSLRLSCAASGSTFYYNAMGWYRLAPGKERELVASISYSGDSTYYADSVKGRFTISRVNAKNTVYLQMNSLKPEDTAVYYCNASTSFRSHLGFLYDYWGQGTQVTVSS", "polyreactivity (PSR sort gate)": "high polyreactivity"}, {"sequence": "QVQLVESGGGLVQAGGSLRLSCAASGTYTNAMGWYRQAPGKERELVAAISSTVGRTYYADSVKGRFTISRDNAKNPVYLQMNSLKPEDTAVYYCATTHGRTYYYWGQGTLVTVSS", "polyreactivity (PSR sort gate)": "high polyreactivity"}, {"sequence": "QVQLVESGGGLVQAGGSLRLSCAASGLTFWSYAMGWYRQAPGKERELVAAISSGGRTYYADSVKGRFTISRDNAKNTVYLQMNSLKPEDTAVYYCNARSRRGPTKDDYWGQGTQVTVSS", "polyreactivity (PSR sort gate)": "high polyreactivity"}, {"sequence": "QVQLVESGGGLVQAGGSLRLSCAASGRTFKYYAMGWYRQAPGKERELVASITRGSSTNYADSVKGRFTISRDNAKNTVYLQMNSLKPEDTAVYYCATGPGRALPRPTSAYYYWGQGTQVTVSS", "polyreactivity (PSR sort gate)": "high polyreactivity"}, {"sequence": "QVQLVESGGGLVQAGGSLRLSCAAYGSTFYNNVMGWYRPAPGKERELVAAINSGGRTYYADSVKGRFTISRDNAKNTVYLQMNSLKPEDTAVYYCAVGYGRAGRMDYWGQGTQVTVSS", "polyreactivity (PSR sort gate)": "high polyreactivity"}, {"sequence": "QVQLVESGGGLVQAGGSLRLTCAASGRTLYRYAMGWYRQAPGKERELVAAITNGGSTKYADSVKGRFTISRDNAKNTVYLQMNSLKPEDTAVYYCYAVVNFILLRIYYGQLYNYWGQGTQVTVSS", "polyreactivity (PSR sort gate)": "low polyreactivity"}, {"sequence": "QVQLVESGGGLVQAGGSLRLSCAASGSIFEQYAMGWYRQAPGKERELVAGINWSTGSTYYADSVKGRFTISRDNAKNTVYLQMNSLKPEDTAVYYCAAEVAGALSDYDYWGQGTQVNVSS", "polyreactivity (PSR sort gate)": "low polyreactivity"}, {"sequence": "QVQLVESGGGLVQAGGSLRLSCDASGFIFYEYAMGWSRQAPGKEREFVAAISRSGTRTYYADSVKGRFTISRDNAKNTVYLQMNSLKPEDTAVYYCAAAYYGYARWRGPRKMDYWGQGTQVTVSS", "polyreactivity (PSR sort gate)": "high polyreactivity"}, {"sequence": "QVQLVESGGGLVQAGGSLRLRCAASGRIFVPYVMGWYRQAPGKERELVASISDSDTSTYYADSVKGRFTISRDNAKNTVYLQMNSLKPEDTAVYYCNVDYWGQGTQVTVSS", "polyreactivity (PSR sort gate)": "low polyreactivity"}, {"sequence": "QVQLVESGGGLVQAGGSLRLSCAASGSIFVGYAMGWYRQAPGKERELVAAITGSGTRTYYADSVKGRFTISRDNAKNTVYLQMNSLKPEDTAVYYCAAPLSYKNVKYDYWGQGTQVTVSS", "polyreactivity (PSR sort gate)": "low polyreactivity"}, {"sequence": "QVQLVESGGGLVQAGGSLRITCAASGSTFYGKSMGLYRQAPGKERELVAAISRGGGSTYYADSVKGRFTISRDNAKNTVYLQMNSLIPEDTAVYYCAGTRYLHPWYYPYYYWGQGTQVTVSS", "polyreactivity (PSR sort gate)": "low polyreactivity"}, {"sequence": "QVQLVESGGGLVQAGGSLRLSCAASGFTFREYAMGWYRQAPGKERELVAAIDWSGGSTYYADSVKGRFTISRDNAKNTVYLQMNRLKPEDTAVYYCNVDFYDWYVYLWYVDYDYCGQGTQVTVSS", "polyreactivity (PSR sort gate)": "high polyreactivity"}, {"sequence": "QVQLVESGGALVQAGGSLRLSCAASGRTFNYNAMGWYRQAPGKERELVAAITSGASTNYADSVKGRFTISRDNAKNTVYLQMNSLKPEDTAVYYCNAEGYVYYLQEDYWGQGTQVNVSS", "polyreactivity (PSR sort gate)": "low polyreactivity"}, {"sequence": "QVQLVESGGGLVQAGGGLRLSCAACGSIFVYYVMGWYRQAPGKERELVAAINSDGDGTYYADSVKGRFTISRDNAKNTVYLQMNSLKPEDTAVYYCNALNPKSYDYWGQGTQVTVSS", "polyreactivity (PSR sort gate)": "low polyreactivity"}, {"sequence": "QVQLVESGGGLVQAGGSLRLSCAASGSIFNYNAMGWYRPAPGKERELVAALNSGGSTNYADSVKGRFTISRDNAKNTVYLQMNSLKPEDPAVYYCAADNYSQGVPYDYWGQGTQVTVSS", "polyreactivity (PSR sort gate)": "low polyreactivity"}, {"sequence": "QVQLVESGGGLVQAGGSLRLSCAASGSTFTEYAMGWYRQAPGKERELVAAITRSGGGTYYADSVKGRFTISRDNAKNTVYLQINSLKPEDTAVYYCAKDWYRRYIRDYWGQGTQVTVSS", "polyreactivity (PSR sort gate)": "high polyreactivity"}, {"sequence": "QVQLVESGGGLVQAGGSLRLSCAASGRIFNQSGMGWYRQAPGKERELVAAIRSGDSTNYADSVKGRFTISRDNAKNTVYLQMNSLKPEDTAVYYCAKDSDYPDYVSTKGDYDYWGQGTQVTVSS", "polyreactivity (PSR sort gate)": "low polyreactivity"}, {"sequence": "QVQLVESGGGLVQAGRCLRLSCAASGITFVPNAMGWSRQAPGKERELVAAISSGGTYADSVKGRFTISRDNAKNTVYLQMNSLKPEDTALYYCNADTDYIRWIYGYWGQVTQVTVSS", "polyreactivity (PSR sort gate)": "low polyreactivity"}, {"sequence": "QVQLQESGGGLVLAGGSLRLSCSASGNISVYGSMGWYRQAPGKEREFVATIDPGTNTNYADSVKDRFTISRDNAKNTVYLQMTSLKPEDTAVYYCAVEAGSDGPYRYWGQGTQVTVSS", "polyreactivity (PSR sort gate)": "low polyreactivity"}, {"sequence": "QVQLVESGGGLVQAGGSLRLSCAASGFTFPYYTMGWYRQAPGKERELVAAISKSGGSTYYADSVKGRFTISRDNAKNTVYLEMHSLKPEDTAVYYCNARRGSPAPYDYWGQGTQVTVSS", "polyreactivity (PSR sort gate)": "high polyreactivity"}, {"sequence": "QVQLVESGGGLVQAGGSLRLSCAASGSTFPKYAMGWYRQAPGKERELVAAISWSGDSTYYADSVKGRFTISRDNAKNSVYLQMNSLNPEDTAVYYCAAYNFIHAGPWEYDYWGQGTQVSVSS", "polyreactivity (PSR sort gate)": "low polyreactivity"}, {"sequence": "QVQLVESGGGLVQAGGSLLLSCAASGSIFGGNAMGWSRQAPGKVRELVAAITSSGGSTYYADSVKGRFTISRDNAKNTVYLQMNSLKPEDTAVYYCNKLSWRKYLGYEYWGQGTQVTVSS", "polyreactivity (PSR sort gate)": "high polyreactivity"}, {"sequence": "QVQLVESGGGLVQAGGSLRLSCAASGRIFYYNTMGWYREAPGTERELVAAISSGAGRTYYADSVKGRFTISRDNAMNTVYLQMNSLKPEDTAVYYCAARFYVIKWYDYWGQGTQVTVSS", "polyreactivity (PSR sort gate)": "high polyreactivity"}, {"sequence": "QVQLVESGGGLVQAGGSLRLSCAASGSIFGKNAMGWYRQAPGKERELVAAITSTGTSTYYADSVKGRFTISRDTAKNTVYLQMNSLKAEDTAVYYCADETARWDYGYWGQGTQVTVSS", "polyreactivity (PSR sort gate)": "low polyreactivity"}, {"sequence": "QVQLVESGGGLVQAGGSLRLSCAASGSTFFYYTIGWYRQAPGKERELVASITNRGGNTYYADSVKGRFTISRDNAKNTVYLQTNSLKPEDTAVYYCARRYYGYSGRYDYWGQGTQVTVSS", "polyreactivity (PSR sort gate)": "high polyreactivity"}, {"sequence": "QVQLVESGGGLVQAGGSLRLSCAASGRISRNYAMGWYRQAPGKERELVAAINRGGSTYYADSVKGRFTISRDNAKNTVYLQMNSLKPEDTAVYYCAARYPNQYDYWGQGTQVTVSS", "polyreactivity (PSR sort gate)": "high polyreactivity"}, {"sequence": "QVQLVESGGGLVQAGGSLRLSCAASGFIFDYYAMGWYRQAPVKERELVAAISWSGGSTYYADSVKGRFTISRDNAKNTVYLQMNSLKPEDTAVYYCNSYYQGYWGDFDYWGQGTQVTVSS", "polyreactivity (PSR sort gate)": "high polyreactivity"}, {"sequence": "QVQLVESGGGLVQAGGSLRLSCAASGRIFQTYDMGWYRQAPGKERELVARIRLSGGSTYYADSVKGRFTISRDNAKNTVYLQMNSLKPEETAVYYCAARYSRALFTDPYYYWGQGTQVTVSS", "polyreactivity (PSR sort gate)": "high polyreactivity"}, {"sequence": "QVQLVESGGGLVQAGGSLRLSCAASGSTFYANGMGRYRQAPGKERELDAAISWSGGSTYYADSVKGRFTISRDNAKNTVYLQMNSLKPEDTAVYYCAAAYRSFINGRWYDYWGQGTQVTVSS", "polyreactivity (PSR sort gate)": "low polyreactivity"}, {"sequence": "QVQLVESGGALVQARGSLRLSCAASGRIFGGNAMGWYRHAPGKERDLVADISYGGGSTNYADSVKGRFTISRDNAKNTVYLQMNSLKPADTAVYYCARDAWNTDGAYIGGDYDYWGQGTKVTVSS", "polyreactivity (PSR sort gate)": "low polyreactivity"}, {"sequence": "QVQLVESGGGLVQAGGSLRLSCAASGRTFYVNAMGWYRQAPGKETELVAAISSGSSTDYADSVKGRFTISRDNAKNTVYLQMNSLKPEDTAVYYCAKRWRRRFVDVWSLYDYWGQGTQVTVSS", "polyreactivity (PSR sort gate)": "low polyreactivity"}]}]}
